According to patent WO2010106812A1 (dated 2010):

Target: T1, soluble human FcRn (human, UniProt P55899 24-290; P61769 21-119)
T1 construct: Complex of FcRn and beta 2-microglobulin; the secreted protein lacks them
Test: Biacore, human FcRn

T1 sequence (P55899 24-290 limits assumed, chain 1 of 2): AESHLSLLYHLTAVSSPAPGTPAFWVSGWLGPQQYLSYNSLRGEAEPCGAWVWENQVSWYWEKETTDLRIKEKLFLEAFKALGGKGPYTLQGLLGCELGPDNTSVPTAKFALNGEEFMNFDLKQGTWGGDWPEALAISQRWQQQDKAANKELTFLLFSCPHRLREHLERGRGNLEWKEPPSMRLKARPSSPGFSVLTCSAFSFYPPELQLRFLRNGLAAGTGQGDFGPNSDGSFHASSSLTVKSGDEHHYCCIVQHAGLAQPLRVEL
T1 sequence (P61769 21-119 limits assumed, chain 2 of 2): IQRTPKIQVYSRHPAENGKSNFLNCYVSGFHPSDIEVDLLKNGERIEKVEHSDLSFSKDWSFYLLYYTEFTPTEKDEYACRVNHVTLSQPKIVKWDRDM

B1: TOCILIZUMAB-M58 (antibody, IgG2)
heavy: QVQLQESGPGLVRPSQTLSLTCTVSGYSITSDHAWSWVRQPPGRGLEWIGYISYSGITTYNPSLKSRVTMLRDTSKNQFSLRLSSVTAADTAVYYCARSLARTTAMDYWGQGSLVTVSSASTKGPSVFPLAPSSKSTSGGTAALGCLVKDYFPEPVTVSWNSGALTSGVHTFPAVLQSSGLYSLSSVVTVPSSNFGTQTYTCNVDHKPSNTKVDKTVERKSCVECPPCPAPPVAGPSVFLFPPKPKDTLMISRTPEVTCVVVDVSQEDPEVQFNWYVDGVEVHNAKTKPREEQFNSTFRVVSVLTVVHQDWLNGKEYKCKVSNKGLPAPIEKTISKTKGQPREPQVYTLPPSQEEMTKNQVSLTCLVKGFYPSDIAVEWESNGQPENNYKTTPPMLDSDGSFFLYSKLTVDKSRWQEGNVFSCSVMHEALHNHYTQKSLSLSP
light: not shown
notes: IgG2-derived constant region (WT-SKSC with further changes, Gly446 and Lys447 deleted); also called WT-M58/WT-kappa
- fold binding against TOCILIZUMAB-IgG1: ~1.4 times

B2: TOCILIZUMAB-M73 (antibody)
heavy: QVQLQESGPGLVRPSQTLSLTCTVSGYSITSDHAWSWVRQPPGRGLEWIGYISYSGITTYNPSLKSRVTMLRDTSKNQFSLRLSSVTAADTAVYYCARSLARTTAMDYWGQGSLVTVSSASTKGPSVFPLAPSSKSTSGGTAALGCLVKDYFPEPVTVSWNSGALTSGVHTFPAVLQSSGLYSLSSVVTVPSSNFGTQTYTCNVDHKPSNTKVDKTVERKSCVECPPCPAPPVAGPSVFLFPPKPKDTLMISRTPEVTCVVVDVSQEDPEVQFNWYVDGVEVHNAKTKPREEQFNSTFRVVSVLTVVHQDWLNGKEYKCKVSNKGLPAPIEKTISKTKGQPREPQVYTLPPSQEEMTKNQVSLTCLVKGFYPSDIAVEWESNGQPENNYKTTPPMLDSDGSFFLYSKLTVDKSRWQEGNVFSCSVMHEALHAHYTQKSLSLSP
light: not shown
notes: WT-M58 with asparagine 434 (EU) changed to alanine; also called WT-M73/WT-kappa
- fold binding against TOCILIZUMAB-IgG1: ~3.8 times
